Tests used:
[1] = molecular target: PRC2.2 six-subunit complex WT (EZH2, SUZ12, EED, RBAP48, AEBP2, JARID2 119-450) (human, UniProt Q15910-2;Q15022;O75530;Q09028;Q6ZN18;Q92833 …); test: EMSA; 100 mM KCl; EMSA: 50 mM Tris-HCl pH 7.5 (25 C), 100 mM KCl, 2.5 mM MgCl2, 0.1 mM ZnCl2, 2 mM 2-mercaptoethanol?; FP: 50 mM Tris pH 7.5, 10 or 25 mM KCl, 2.5 mM MgCl2, 0.1 mM ZnCl2, 0.1 mg/mL BSA?, room temperature, 5 nM RNA or DNA; settings: protein: recombinant, tags: His-EZH2, Strep-GFP-AEBP2, Strep-GFP-JARID2, TEV protease treated, copies: 1;1;1;1;1;1, label: 5' 32P (EMSA)
[2] = molecular target: T1, PRC2.2 EZH2 R566Y K568Y Q575Y (3Y) (human, UniProt Q15910-2;Q15022;O75530;Q09028;Q6ZN18;Q92833 …, R566Y;K568Y;Q575Y); test: EMSA; higher affinity than WT; EMSA: 50 mM Tris-HCl pH 7.5 (25 C), 100 mM KCl, 2.5 mM MgCl2, 0.1 mM ZnCl2, 2 mM 2-mercaptoethanol?; FP: 50 mM Tris pH 7.5, 10 or 25 mM KCl, 2.5 mM MgCl2, 0.1 mM ZnCl2, 0.1 mg/mL BSA?, room temperature, 5 nM RNA or DNA; settings: protein: recombinant; tags: as P1; copies: 1;1;1;1;1;1; label: 5' 32P (EMSA); single G-quadruplex
[3] = molecular target: PRC2.2 EZH2 R566A K568A Q575A (human, UniProt Q15910-2;Q15022;O75530;Q09028;Q6ZN18;Q92833 …, R566A;K568A;Q575A); test: EMSA; binding not affected vs WT; EMSA: 50 mM Tris-HCl pH 7.5 (25 C), 100 mM KCl, 2.5 mM MgCl2, 0.1 mM ZnCl2, 2 mM 2-mercaptoethanol?; FP: 50 mM Tris pH 7.5, 10 or 25 mM KCl, 2.5 mM MgCl2, 0.1 mM ZnCl2, 0.1 mg/mL BSA?, room temperature, 5 nM RNA or DNA; settings: protein: recombinant; tags: as P1; copies: 1;1;1;1;1;1; label: 5' 32P (EMSA); single G-quadruplex
PRC2.2 EZH2 del353-362 = PRC2.2 EZH2 del353-362 (human, UniProt Q15910-2;Q15022;O75530;Q09028;Q6ZN18;Q92833 …, internal_change); test: EMSA; no obvious reduction vs WT; EMSA: 50 mM Tris-HCl pH 7.5 (25 C), 100 mM KCl, 2.5 mM MgCl2, 0.1 mM ZnCl2, 2 mM 2-mercaptoethanol?; FP: 50 mM Tris pH 7.5, 10 or 25 mM KCl, 2.5 mM MgCl2, 0.1 mM ZnCl2, 0.1 mg/mL BSA?, room temperature, 5 nM RNA or DNA; settings: protein: recombinant; tags: as P1; copies: 1;1;1;1;1;1; label: 5' 32P (EMSA); single G-quadruplex
[4] = molecular target: T1, PRC2.2 EZH2 R566Y K568Y Q575Y (3Y); test: FP; higher affinity than WT; Kd only in figure; EMSA: 50 mM Tris-HCl pH 7.5 (25 C), 100 mM KCl, 2.5 mM MgCl2, 0.1 mM ZnCl2, 2 mM 2-mercaptoethanol?; FP: 50 mM Tris pH 7.5, 10 or 25 mM KCl, 2.5 mM MgCl2, 0.1 mM ZnCl2, 0.1 mg/mL BSA?, room temperature, 5 nM RNA or DNA; settings: protein: recombinant; tags: as P1; copies: 1;1;1;1;1;1; label: fluorescent label; single G-quadruplex

CAAAAACAAAAACAAAAACAAAAACAAAAAGGGAAGGGAAGGGAAGGGAA (structured_RNA) [1G4 RNA, no biotin]
Kd ([1]; single G-quadruplex): 120 nM
binding result [2]: binds
binding result [3]: binds
binding result (PRC2.2 EZH2 del353-362): binds

B1: 2G4 RNA (structured_RNA)
RNA: CAAAAACAAAAACAAAAACAAAAACAAAAAGGGAAGGGAAGGGAAGGGAAACAACAACAACAACAGGGAAGGGAAGGGAAGGGAA
Kd ([1]; two G-quadruplexes): 32 nM

CAAAAACAAAAACAAAAACAAAAACAAAAAGGGAAGGGAAGGGAAGGGAA (structured_RNA) [1G4 RNA (FP)]
binding result [4]: binds

— PMC11191771
